One data set deals with T1, Dcp1(1-127) (S. pombe, UniProt Q9P805 1-127, perdeuterated background, 1H/13C-labelled ILVMA terminal methyl groups).
T1 sequence (looked up): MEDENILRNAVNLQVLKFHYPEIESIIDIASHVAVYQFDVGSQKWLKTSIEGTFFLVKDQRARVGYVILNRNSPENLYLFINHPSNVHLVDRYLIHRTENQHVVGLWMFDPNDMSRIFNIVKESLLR
Kind of data set: co-purification.

Another data set addresses T2, Dcp1/Dcp2core (Schizosaccharomyces pombe, UniProt Q9P805;O13828 1-127;1-243).
T2 sequence 1: T1 sequence (looked up)
T2 sequence 2: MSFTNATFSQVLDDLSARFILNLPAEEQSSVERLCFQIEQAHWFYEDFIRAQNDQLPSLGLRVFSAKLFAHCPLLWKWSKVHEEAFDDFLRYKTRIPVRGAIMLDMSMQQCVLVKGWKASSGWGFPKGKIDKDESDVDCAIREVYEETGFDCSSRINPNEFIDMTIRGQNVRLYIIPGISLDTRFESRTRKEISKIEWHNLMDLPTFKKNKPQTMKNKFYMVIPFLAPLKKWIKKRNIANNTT
Kind of data set: fluorescence polarization. (In general: In fluorescence polarisation assays a small probe gives low polarisation when free and higher when bound to something large.)

B1: Dcp2(1-504)_(eSrtA), sortase-ligated Dcp2ext with C-terminal StrepII (domain or fragment, S. pombe)
chain: MSFTNATFSQVLDDLSARFILNLPAEEQSSVERLCFQIEQAHWFYEDFIRAQNDQLPSLGLRVFSAKLFAHCPLLWKWSKVHEEAFDDFLRYKTRIPVRGAIMLDMSMQQCVLVKGWKASSGWGFPKGKIDKDESDVDCAIREVYEETGFDCSSRINPNEFIDMTIRGQNVRLYIIPGISLDTRFESRTRKEISKIEWHNLMDLPTFKKNKPQTMKNKFYMVIPFLAPLKKWIKKRNIANNTTKEKNISVDVDADASSQLLSLLKSLPETGGGATPQPSTFPQPPVESHSSFDIKQKILHLLNEGNEPKSPIQLPPVSNLPLNPPIQSSNSRLSHDNNSFDPFAYLGLDPKNPSASFPRVVSQNNMLTNKPVLNNHFQQSMYSNLLKDQNSVQHLFAASDMPSPMELPSPSTVYHQVFYPPTSTSVSSYGLGKTPQPAYGSSSPYVNGHQTQQISSLPPFQSQTQFLARNSDNSGQSYNSEGDSNSKRLLSMLSQQDTTPSSST
modifications: residues 1-266 perdeuterated with 1H/13C-labelled ILVMA terminal methyl groups; 274-504 unlabelled
B1: the binding result in the data set with Dcp1(1-127) was “binds”. Consider UUUUUUUUUUUUUUUUUUUUUUUUUUUUUU (ssRNA, 5' phosphate) [30U RNA], for which the binding result with Dcp1/Dcp2core is reported as “binds”.

For the origin of these results see paper doi:10.1101/2020.07.09.195057 (bioRxiv, 2020).
